Reference: US20220227874A1, “CHIMERIC ANTIGEN RECEPTORS TARGETING EPIDERMAL GROWTH FACTOR RECEPTOR VARIANT III” (published 2022)

Legend:
[1] = molecular target: T1, EGFRvIII expressed on cells (F98-npEGFRvIII, NCI-H522-EGFRvIII, U87-KO-EGFRvIII) (human); assay: flow cytometry, F98-EGFRvIII cells; 2nd Ab only 1.3
[2] = molecular target: T1, EGFRvIII expressed on cells …; assay: flow cytometry, EGFRvIII expressing cell line against non-expressing cell lines
[3] = molecular target: T1, EGFRvIII expressed on cells …; assay: flow cytometry, F98-EGFRvIII cells; 2nd Ab only 322

% positive [1] [%] | fold MFI over non-expressing cell lines [2] [fold] | MFI [3] | Binder
98.6 | ≥ 10 | 3730 | 32G8 (antibody, V domains shown) VH: EVNLVESGGGLVKPGGSLRLSCEASGFTFSYAWMSWVRQAPGKGLEWVGRIKSITDGGVIDYAAPVRNRCTISRDDSRNTLYLEMHSLKTEDTAVYYCTTIPGNDDFDMWGQGRMVTVSS VL: DIVLTQSPLSLSVTPGEPASISCRSSQSLLYSNGKNYLDWFLHKPGQSPQLLIYLGSNRASGVPDRFSGSGSGIDFILKISRVEAEDVGVYYCMQAQQTPITFGQGTRLEIK
98.5 | ≥ 10 | 4130 | 34E7 (antibody, V domains shown) VH: EVNLVESGGGLVKPGGSLRLSCEASGFTFSYAWMSWVRQAPGKGLEWVGRIKSINDGGATDYASPVRNRFTISRDDSRNMLYLEMHSLKTEDTAVYYCTTIPGNDAFDMWGQGTLVTVSS VL: DIVLTQSPLSLSVTPGEPASISCRSTQSLLYSNGKNYLDWFLHKPGQSPQLLIFLGSIRASGVPDRFSGSGSGIDFILKISRVEAEDVGVYYCMQAQQTPITFGQGTRLEIK
